Target: xTCF1
Test: co-IP; binding competition: HEK293T cells transfected with flag-TCF and β-cat1 or β-cat4 alone, together, or with β-cat2 as control; IP with FLAG-M2 beads; precipitated β-catenins quantified and normalised against total β-catenins in whole cell lysates

| Substance | relative binding to TCF, β-cat4 alone and β-cat1+β-cat4 co-transfected compared | relative binding to TCF, β-cat4 alone and β-cat4+β-cat2 co-transfected compared (negative control) | relative binding to TCF, β-cat1 alone and β-cat1+β-cat2 co-transfected compared (negative control) | relative binding to TCF, β-cat1 alone and β-cat1+β-cat4 co-transfected compared |
| --- | --- | --- | --- | --- |
| Smed-β-catenin4 (natural protein) | 0.51 | 0.91 | – | – |
| Smed-β-catenin1 (natural protein) | – | – | 1.11 | 0.63 |

From PMC5643146
